Data taken from patent publication US9012398B2.

Biological target: human GLP-1 receptor (human) (UniProt P43220)

| Substance | GLP1cAMPma (3693) [EC50 (nM)] Mean Value [nM] |
| --- | --- |
| N-ε^27-(2-(2-(2-(2-(2-(2-(17-carboxyheptadecanoylamino-4(S)- carboxybutyrylamino])ethoxy)ethoxy)acetylamino)ethoxy)ethoxy) acetyl)[Leu^14,Arg^12,Lys^27]Exendin-4(1-39)amide (from UniProt P26349) (peptide) | 0.52 |
| N-ε^27-[2-(2-[2-(2-[2-(2-[4-hexadecanoylamino-4(S)- carboxybutyrylamino]ethoxy)ethoxy]acetylamino)ethoxy]ethoxy)acetyl] [Arg^12,Leu^14,Lys^27,Ala^29]Exendin-4-(1-39)-amide (from UniProt P26349) (peptide) | 0.15 |
| N-ε^27-[2-(2-[2-(2-[2-(2-[4-hexadecanoylamino-4(S)- carboxybutyrylamino]ethoxy)ethoxy]acetylamino)ethoxy]ethoxy)acetyl] [Arg^12,Leu^14,Lys^27]Exendin-4(1-39)amide (from UniProt P26349) (peptide) | 0.007 |
| N-ε^27-{2-(2-(2-(2-[2-(2-(4-(hexadecanoylamino)-4(S)- carboxybutyrylamino)ethoxy)ethoxy)acetylamino)ethoxy)ethoxy)acetyl} [Leu^14,28,Lys^27]Exendin-4(1-39)amide (from UniProt P26349) (peptide) | 0.19 |
| N-ε^27-{2-(2-(2-(2-[2-(2-(4-(hexadecanoylamino)-4(S)- carboxybutyrylamino)ethoxy)ethoxy]acetylamino)ethoxy)ethoxy) acetyl)}[Gln^12,Leu^14,28,Lys^27]Exendin-4(1-39)amide (from UniProt P26349) (peptide) | 0.041 |
| N-ε^28-(2-(2-(2-(2-(2-(2-(2-(2-(2- (Octadecanoylamino)ethoxy)ethoxy)acetylamino)ethoxy)ethoxy)acetyl- amino)ethoxy)ethoxy)acetyl))[Arg^12,Leu^14,Val^27,Lys^28 Exendin-4(1- 39)amide (from UniProt P26349) (peptide) | 0.025 |
| N-ε^28-(2-(2-(2-(2-(2-(2-(2-(2-(2- (Octadecanoylamino)ethoxy)ethoxy)acetylamino)ethoxy)ethoxy)acetyl- amino)ethoxy)ethoxy)acetyl))[Arg^12,Val^27,Lys^28]Exendin-4(1-39)amide (from UniProt P26349) (peptide) | 0.041 |
| N-ε^28-[2-(2-[2-(2-[2-(2-[4-hexadecanoylamino-4(S)- carboxybutyrylamino]ethoxy)ethoxy]acetylamino)ethoxy]ethoxy)acetyl] [alfa-Me-Phe^6,Arg^12,Val^27,Lys^28,Ala^29]Exendin-4-(1-39)-amide (from UniProt P26349) (peptide) | 0.052 |
| N-ε^28-{2-(2-(2-(2-[2-(2-(4-(hexadecanoylamino)-4- carboxybutyrylamino)ethoxy)ethoxy]acetylamino)ethoxy)ethoxy) acetyl)}-[Leu^14,Lys^20]Exendin-4-amide (from UniProt P26349) (peptide) | 0.011 |
| N-ε^32-(2-(2-(2-(2-(2-(2-(2-(2-(2- (Octadecanoylamino)ethoxy)ethoxy)acetylamino)ethoxy)ethoxy)acetyl- amino)ethoxy)ethoxy)acetyl))[Arg^12,Leu^14,Val^27,Arg^28,Lys^32]Exendin-4 (1-39)amide (from UniProt P26349) (peptide) | 0.027 |
| N-ε^32-(2-(2-(2-(2-(2-(2-(4-(Octadecanoylamino)-4(S)- carboxybutyrylamino))ethoxy)ethoxy)acetylamino)ethoxy) ethoxy)acetyl[Arg^12,Leu^14,Val^27,Arg^28,Lys^32]Exendin-4-(1-39)amide (from UniProt P26349) (peptide) | 0.025 |
| N-ε^32-[2-(2-[2-(2-[2-(2-[2-(2-[2- (Eicosanoylamino)ethoxy]ethoxy)acetylamino]ethoxy)ethoxy] acetylamino)ethoxy]ethoxy)acetyl][Arg^12,28,Leu^14,Val^27,Lys^32] Exendin-4-(1-39)amide (from UniProt P26349) (peptide) | 0.27 |
| N-ε^34-(2-(2-(2-(16-tetrazoylhexadecanoylamino-4(S)- carboxybutyrylamino)ethoxy)ethoxy(acetyl)[Leu^14,Arg^12,27, Lys^34]Exendin-4(1-39)amide (from UniProt P26349) (peptide) | 0.61 |
| N-ε^34-(2-(2-(2-(17-carboxyheptadecanoylamino)ethoxy)ethoxy)acetyl) [Leu^14,Arg^12,27,Lys^34]Exendin-4(1-39)amide (from UniProt P26349) (peptide) | 0.44 |
| N-ε^34-[2-(2-[2-(2-[2-(2-[4-hexadecanoylamino-4(S)- carboxybutyrylamino]ethoxy)ethoxy]acetylamino)ethoxy]ethoxy)acetyl] [Arg^12,27,Leu^14,Lys^34]Exendin-4(1-39)amide (from UniProt P26349) (peptide) | 0.018 |
| N-ε^34-[2-(2-[2-[4-hexadecanoylamino-4(S)- carboxybutyrylamino]ethoxy]ethoxy)acetyl][Arg^12,27,Leu^14,Lys^34] Exendin-4(1-39)amide (from UniProt P26349) (peptide) | 0.012 |
